Laboratory results from publication PMC10815899.

Columns and labels:
[1] = target: GAPDH present on the surface of N. glabratus cells (N. glabratus (endogenous in CBS138 / ATCC 2001)); assay: SEC; Superdex 200 HR 10/50, calibrated with molecular mass standards, 0.5 mL/min; buffer 20 mM Tris-HCl pH 6.7 (methods) or 50 mM NaH2PO4, 150 mM NaCl pH 7.0
[2] = target: epithelial adhesin 6 of N. glabratus (N. glabratus (endogenous)) (UniProt Q6FX55); assay: BLI; Octet N1; Epa6 immobilised on an AR2G biosensor; NgGAPDH 100–1000 nM; Langmuir 1:1 model
[3] = target: cytoplasmic Nakaseomyces glabratus glyceraldehyde 3-phosphate dehydrogenase (N. glabratus (endogenous in CBS138 / ATCC 2001)); assay: SEC; Superdex 200 HR 10/50, calibrated with molecular mass standards, 0.5 mL/min; buffer 20 mM Tris-HCl pH 6.7 (methods) or 50 mM NaH2PO4, 150 mM NaCl pH 7.0
[4] = target: vitronectin (Homo sapiens) (UniProt P04004); conditions: cited from earlier work
[5] = target: GAPDH on the surface of C. albicans cells (C. albicans (endogenous in ATCC 10231)) (UniProt Q5ADM7); assay: whole-cell binding assay with antibody blocking (SA-HRP/TMB); C. albicans hyphae in MaxiSorp wells (10^6 cells per well) or N. glabratus cells in tubes (3 × 10^7 per tube), pre-incubated with polyclonal anti-ScGAPDH antibody (1 µg/mL), then 150 nM biotin-labeled VTR or HPG, 1 h at 37 °C
[6] = target: GAPDH present on the surface of N. glabratus cells (N. glabratus (endogenous in CBS138 / ATCC 2001)); assay: as above
[7] = target: recombinant Candida albicans glyceraldehyde 3-phosphate dehydrogenase (C. albicans) (UniProt Q5ADM7); assay: BLI; Octet N1; GAPDH amine-coupled on an AR2G biosensor; VTR or HPG 31–500 nM in solution; Langmuir 1:1 model
[8] = target: cytoplasmic Nakaseomyces glabratus glyceraldehyde 3-phosphate dehydrogenase (N. glabratus (endogenous in CBS138 / ATCC 2001)); assay: as above
[9] = target: recombinant Candida albicans glyceraldehyde 3-phosphate dehydrogenase (C. albicans) (UniProt Q5ADM7); assay: SPR; Biacore 3000; GAPDH amine-coupled on a CM5 chip; VTR 10–500 nM, 30 µL/min, 25 °C, HBS buffer (10 mM HEPES, 150 mM NaCl, 0.005% P20, pH 7.4); Langmuir 1:1 model with baseline drift
[10] = target: cytoplasmic Nakaseomyces glabratus glyceraldehyde 3-phosphate dehydrogenase (N. glabratus (endogenous in CBS138 / ATCC 2001)); assay: as above

Chain of vitronectin (Homo sapiens) (P04004 399-478): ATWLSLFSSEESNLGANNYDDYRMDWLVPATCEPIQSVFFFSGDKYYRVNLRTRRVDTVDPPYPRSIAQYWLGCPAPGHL

Substance	percent decrease of binding to cells with anti-ScGAPDH antibody [5] [%]	percent decrease of binding to cells with anti-ScGAPDH antibody [6] [%]	Kd [7] [µM]	koff [7] [s⁻¹]	kon [7] [M⁻¹ s⁻¹]	Kd [8] [µM]	koff [8] [s⁻¹]	kon [8] [M⁻¹ s⁻¹]	other results
GAPDH present on the surface of N. glabratus cells (enzyme)									stoichiometry N [1]: 4
cytoplasmic Nakaseomyces glabratus glyceraldehyde 3-phosphate dehydrogenase (enzyme)									Kd [2]: 0.007 to 0.014 µM; stoichiometry N [3]: 4
enolase (from UniProt P30575)									Kd [4]: 0.04 µM
human plasminogen (natural protein)	19	36	0.15	0.00496	33000	0.00869	0.000649	74600	
human vitronectin (natural protein)	16	12	0.0206	0.000799	38900	0.0339	0.00172	50700	Kd [9]: 0.0442 µM; koff [9]: 0.000619 s⁻¹; kon [9]: 14000 M⁻¹ s⁻¹; Kd [10]: 0.048 µM; koff [10]: 0.00183 s⁻¹; kon [10]: 38100 M⁻¹ s⁻¹
